Target: T1, Thrombospondin-1 (Abnova) (UniProt P07996 19-1170)
T1 construct: Thrombospondin-1 bought from Abnova; No catalogue number is printed; the product may be a partial or tagged recombinant protein; also called TSP-1; free TSP-1; source: bought: Abnova
Experiment: SPR; Biacore 3000; AMEL-2 immobilised on a CM5 chip by amine coupling (10,000 RU); running buffer 10 mM Na2HPO4, 150 mM NaCl, pH 7.4; analytes injected at 10 μl/min for 3 min, dissociation 600 s, no regeneration; 1:1 Langmuir model
Conditions: both partners purified

T1 sequence (P07996 19-1170): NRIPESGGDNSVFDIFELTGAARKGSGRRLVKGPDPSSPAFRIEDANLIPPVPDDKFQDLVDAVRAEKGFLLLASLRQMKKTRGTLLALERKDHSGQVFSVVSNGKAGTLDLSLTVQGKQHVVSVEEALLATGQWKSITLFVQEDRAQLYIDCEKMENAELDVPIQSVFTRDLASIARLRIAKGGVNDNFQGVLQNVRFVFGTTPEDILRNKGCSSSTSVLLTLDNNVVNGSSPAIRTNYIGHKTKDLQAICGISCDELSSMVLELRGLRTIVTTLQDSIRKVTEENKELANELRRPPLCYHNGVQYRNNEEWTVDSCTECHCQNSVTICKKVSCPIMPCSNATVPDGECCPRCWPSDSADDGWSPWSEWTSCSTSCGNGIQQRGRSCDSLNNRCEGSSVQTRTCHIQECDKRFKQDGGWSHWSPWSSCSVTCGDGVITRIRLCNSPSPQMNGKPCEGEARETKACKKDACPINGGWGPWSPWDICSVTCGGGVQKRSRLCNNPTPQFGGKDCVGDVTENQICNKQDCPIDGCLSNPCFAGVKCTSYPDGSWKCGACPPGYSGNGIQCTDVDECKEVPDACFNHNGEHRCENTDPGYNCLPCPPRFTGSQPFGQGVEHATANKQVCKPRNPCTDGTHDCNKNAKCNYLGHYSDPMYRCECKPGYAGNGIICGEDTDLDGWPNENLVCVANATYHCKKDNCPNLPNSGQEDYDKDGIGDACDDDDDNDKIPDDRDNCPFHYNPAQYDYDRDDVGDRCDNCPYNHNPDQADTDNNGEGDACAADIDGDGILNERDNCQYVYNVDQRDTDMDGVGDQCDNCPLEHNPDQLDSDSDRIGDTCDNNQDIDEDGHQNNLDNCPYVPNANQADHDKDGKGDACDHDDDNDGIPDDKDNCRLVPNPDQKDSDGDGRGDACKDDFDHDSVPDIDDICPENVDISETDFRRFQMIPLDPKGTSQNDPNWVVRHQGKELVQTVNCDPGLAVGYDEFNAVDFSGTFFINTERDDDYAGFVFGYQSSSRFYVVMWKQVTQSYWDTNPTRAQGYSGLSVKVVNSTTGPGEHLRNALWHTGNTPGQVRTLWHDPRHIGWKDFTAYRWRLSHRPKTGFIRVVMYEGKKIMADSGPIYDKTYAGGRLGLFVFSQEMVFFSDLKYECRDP

B1: human amelogenin isoform 2 (AMELX isoform II), recombinant (natural protein)
chain: MGTWILFACLLGAAFAMPVLTPLKWYQSIRPPYPSYGYEPMGGWLHHQIIPVLSQQHPPTHTLQPHHHIPVVPAQQPVIPQQPMMPVPGQHSMTPIQHHQPNLPPPAQQPYQPQPVQPQPHQPMQPQPPVHPMQPLPPQPPLPPMFPMQPLPPMLPDLTLEAWPSTDKTKREEVD
- Kd: 878 ± 125 nM
